Experimental data: patent publication US7272508B2, “Small molecule mimetics of erythropoietin” (The Scripps Research Institute, priority 1996, dated 2007)
Positions of bridges follow the written chain, without caps; N, C: chain ends. No end group written: not given here.

B1: EPO binding protein (EBP), extracellular fragment of human EPO receptor, residues 1-225 (receptor, UniProt P19235 25-249, looked up)
chain: APPPNLPDPKFESKAALLAARGPEELLCFTERLEDLVCFWEEAASAGVGPGNYSFSYQLEDEPWKLCRLHQAPTARGAVRFWCSLPTADTSSFVPLELRVTAASGAPRYHRVIHINEVVLLDAPVGLVARLADESGHVVLRWLPPPETPMTSHIRYEVDVSAGNGAGSVQRVEILEGRTECVLSNLRGRTRYTFAVRARMAEPSFGGFWSAWSEPVSLLTPSDLD
notes: range 1-225; they probably count on the mature receptor without signal peptide; Two EBP molecules stand in the asymmetric unit with two peptides; also called EBP1; EBP2

What was measured:
[1] = system: nascent red blood cell production; test: in vivo assays of nascent red blood cell production; details: mice; two different in vivo assays of nascent red blood cell production
[2] = target: T1, EBP (extracellular fragment of human EPO receptor, residues 1-225) (Homo sapiens, UniProt P19235); test: DPDPB crosslinking of EBP in solution (peptide-dependent dimerization); assay type: biochemical; details: co-incubation of EMP1, DPDPB and EBP; no significant dimer in the absence of peptide
T1 construct: consisting of residues 1-225, was expressed in Escherichia coli; made in house; host or cells: Escherichia coli
T1 sequence (P19235 25-249): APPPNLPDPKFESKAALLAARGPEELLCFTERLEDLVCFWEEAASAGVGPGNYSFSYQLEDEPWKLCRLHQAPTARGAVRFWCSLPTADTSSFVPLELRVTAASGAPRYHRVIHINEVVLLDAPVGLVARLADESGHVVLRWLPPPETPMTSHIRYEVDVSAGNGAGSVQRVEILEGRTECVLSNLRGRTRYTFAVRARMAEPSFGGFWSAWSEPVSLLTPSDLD
Method: To explore the interaction of EMP1 with EBP in solution we employed a bifunctionalsulphydryl reactive crosslinker DPDPB, [1,4-di-(2′-pyridyldithio propionamido) butane], in an attempt to stabilize a peptide-dependent dimeric structure. […] A dimeric EBP product is formed by co-incubation of EMP1, DPDPB and EBP. The amount of dimeric product increases with peptide concentration and no significant dimer product is observed in the absence of peptide. DPDPB-crosslinked products formed through disulfide-exchange reactions should be readily reversible by reduction as is seen for the covalently-linked EMP1-mediated dimer. […] The Cys^181 residues in D2 of the EBP dimer are 20.7 Å apart (Sγ-Sγ distance) which approximates the 16 Å length (and approximately 2 Å in bond length at each end) of the DPDPB cross-linker.

[3] = target: T2, EPO receptor (Homo sapiens, UniProt P19235); test: receptor binding assays, competition with EPO
T2 sequence (P19235 25-508): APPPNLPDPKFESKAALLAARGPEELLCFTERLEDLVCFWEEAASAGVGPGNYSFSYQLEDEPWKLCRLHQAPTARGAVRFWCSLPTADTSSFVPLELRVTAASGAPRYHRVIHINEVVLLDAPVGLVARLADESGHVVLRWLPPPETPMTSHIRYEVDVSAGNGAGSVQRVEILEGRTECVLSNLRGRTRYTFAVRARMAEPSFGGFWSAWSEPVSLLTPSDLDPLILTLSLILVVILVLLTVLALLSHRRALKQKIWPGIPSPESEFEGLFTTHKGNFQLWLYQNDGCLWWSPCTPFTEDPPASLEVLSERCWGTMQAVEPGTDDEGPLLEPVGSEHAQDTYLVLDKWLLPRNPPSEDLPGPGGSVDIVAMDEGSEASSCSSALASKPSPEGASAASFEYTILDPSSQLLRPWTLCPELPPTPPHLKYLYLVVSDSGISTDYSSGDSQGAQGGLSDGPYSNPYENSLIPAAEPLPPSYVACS

[4] = system: cell lines engineered to be responsive to EPO; test: cellular proliferation of cell lines engineered to be responsive to EPO; assay type: cell-based
[5] = system: EPO responsive cells; test: phosphorylation events and cell cycle progression in EPO responsive cells; assay type: cell-based
[6] = target: B1; test: DPDPB crosslinking in solution; dimeric product increases with peptide concentration
[7] = target: the molecule itself; test: DPDPB sulphydryl crosslinking of EBP in solution

**Q.** Which results are given for “GGTYSCHFGPLTWVCKPQGG (disulfide 6-15 (inferred)) [EMP1]”?
**A.** erythropoietic effects [1]: significant erythropoietic effects; formation of dimeric EBP product [2]: mediates formation of a soluble EBP dimer complex in solution; competition with EPO in receptor binding assays [3]: competes with EPO; induction of cellular proliferation [4]: induces cellular proliferation; cascade of phosphorylation events and cell cycle progression [5]: induce a similar cascade of phosphorylation events and cell cycle progression

**Q.** Does GGTYSCHFGPLTWVCKPQGG (disulfide 6-15, also called RWJ 61233; peptide-2) [EMP1 (EPO Mimetic Peptide 1)] bind [6]?
**A.** Result: binds

**Q.** Does B1 bind [7]?
**A.** Result: no binding
